Results reported in the supplement of paper PMC10567573.

B1: BCL2L13 (parent)
chain: QSLDQEILLKVKTEIEEELKSLDK
B2: RSPH3 (parent)
chain: LELQRQREARKRALARKQAQEQLR

Variants of: B1
Assay: protein stability index of a GFP-peptide fusion (GPS, HEK-293T) (PSI 1-6); higher = more stable
Conditions: c terminus: a fixed tail appended
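Further: lentivirally expressed fusions sorted by FACS into six bins by GFP to DsRed ratio, PSI derived from sequencing read proportions per bin multiplied by bin number.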

Protein stability index, by site and new letter:
L22: C 5.34, W 4.34, R 4.67, F 5.37, V 5.2, E 4.58, T 5.13, K 5.47, H 5.47, D 5.74, M 5.12, Y 5.02, P 5.67, S 5.41, Q 5.3, A 4.81, I 4.49, N 5.16
L19: H 4.97, R 5.57, T 5.48, N 5, M 5.4, E 5.71, D 5.77, F 4.76, P 5.64, V 5.63, A 5.68, W 4.46, S 5, Q 5.49, G 5.03, K 5.19, I 4.65, Y 5.05, C 5.02
I15: G 5.61, D 5.89, H 5.29, C 5.12, T 5.76, S 5.72, W 4.45, P 5.92, Q 5.46, E 5.8, L 4.85, V 5.08, M 5.08, A 5.33, Y 4.88, K 5.41, N 5.58, F 5.36
E18: G 4.62, L 3.06, R 4.16, D 5.58, W 2.8, A 4.02, S 4.61, I 2.58, N 4.4, Y 2.17, Q 3.88, K 3.74, V 3.69, H 4.05, T 3.92, C 3.41, F 3.8, M 1.98, P 4.32
E16: D 5.17, G 5.21, T 4.72, H 4.4, S 4.93, N 5.02, I 4.35, W 3.66, L 3.23, K 4.76, M 3.09, Y 3.87, P 4.69, Q 5.04, F 3.53, V 3.69, C 3.97, R 4.79, A 4.6
T13: D 4.44, R 4.96, G 4.06, V 3.58, I 2.44, C 3.28, H 4.71, M 3.65, P 5.34, Y 4.14, A 3.97, W 3.48, Q 3.67
E17: D 5.13, I 3.49, C 3.87, Y 3.67, A 4.57, T 4.1, Q 4.56, F 3.54, S 4.81, H 4.51, G 4.93, N 4.11, V 2.69, M 4.08, K 4.41, L 3.72, W 3.51, R 3.99, P 4.95
E14: K 4.15, H 4.26, G 5.05, S 4.99, F 3.06, P 4.31, V 3.48, I 2.92, Y 3.16, Q 4.84, T 4.46, D 4.7, L 2.82, R 3.85, N 4.58, C 4.03, M 3.7, A 3.4, W 2.47
D23: I 3.3, R 3.78, N 4.04, C 3.42, H 3.7, K 4.33, Q 4.48, A 2.63, M 2.33, P 4.85, F 2.14, G 4.41, E 4.29, T 4.47, L 2.2
K20: T 5.09, H 4.48, L 4.56, G 5.03, F 4.2, Y 4.3, I 4.56, E 5.67, W 4.91, A 5.08, R 5.18, D 4.86, Q 4.63, P 5.35, V 5.11, N 5.17, S 5.33, C 4.9, M 4.48
S21: Q 4.86, L 4.46, A 4.83, M 4.67, V 4.73, G 5.35, F 4.72, Y 4.25, I 4.77, D 5.47, H 4.44, N 5.38, K 4.83, T 4.59, C 4.98, R 4.42, P 4.97, W 3.57
K12: V 4.1, Y 4.27, S 4.61, T 4.73
K24: T 4.79, A 5.1, D 5.27, W 4.94, S 4.9, G 5.12, R 4.53, E 5.74, Y 4.25, M 3.67, L 4.71, I 4.58, P 5.06, F 4.89, V 4.71, H 4.36, N 5.04, Q 4.73, C 4.53

Variants of: B2
Assay: as above
Conditions: c terminus: a fixed tail appended

Protein stability index of substitutions, site by site:
Q6: D 4.05, C 3.17, I 2.98, P 3.64, R 3.41, M 2.92, F 3.35, T 3.87, H 2.96, V 3.37, G 4.55, S 3.76, L 3.33, Y 3.71, A 4.14, N 3.73, W 4.26, E 4.46, K 4.63
L1: R 4.4, Y 3.76, K 3.78, D 4.08, A 3.16, Q 3.82, M 4.24, S 3.85, T 3.34, I 3.29, H 3.96, E 4.26, C 4.05, F 3.22, N 4.27, P 4.45, V 3.64, W 2.71, G 4.14
E2: F 2.56, H 3, T 3.15, Y 2.52, D 3.91, S 3.56, K 4.11, M 2.92, W 2.59, A 3.1, P 3.58, R 3.57, G 2.95, L 2.6, I 2.34, N 3.69, Q 3.93, C 3.13, V 2.79
Q4: L 3.22, T 4.06, M 2.32, V 3.43, R 4.02, F 3.12, A 3.17, Y 3.03, K 3.55, E 4.3, C 3.52, H 4.2, W 3.43, S 4.27, G 3.41, I 2.95, N 3.76, P 3.51, D 3.96
L3: I 3.74, W 3.52, Y 3.89, V 4.29, N 3.86, A 4.14, H 4.42, M 3.6, D 4.14, F 3.81, G 4.43, Q 3.9, R 3.54, E 5.04, C 3.12, T 4.35, K 4.17, P 4.18, S 4.14
R5: T 4.17, N 3.72, P 3.89, M 4.03, G 4.34, Q 4.32, E 3.68, L 3.25, K 4.25, Y 4.19, A 5.05, H 4.21, I 3.77, C 4.09, V 4.36, D 4.27, S 4.16, W 4.02, F 3.91
R7: A 3.61
